The results in this text go back to patent CN116813769A (FUZHOU CREMAB PHARMACEUTICAL INC, dated 2023).

Assay [1] addresses T1, 人CD47胞外段-His tag重组蛋白 (SinoBiological 12283-H08H) (human, UniProt Q08722 19-139).
T1 construct: extracellular domain; Bought reagent; Captured on HIS1K sensor; also called CD47-his tag蛋白
Nature of the assay: BLI (Octet K2), HIS1K sensor loaded with CD47-his tag, antibody in solution, 1:1 fit. (In general: BLI is a label-free optical method that tracks binding on a fibre tip over time.)

In assay [2] the target is T2, 经生物素标记的CD47-hFc蛋白 (biotin-labelled CD47-hFc protein, expressed in house) (UniProt Q08722 19-141, biotin-labelled (site not stated)).
T2 construct: Self-expressed; Captured on SA sensor
Nature of the assay: BLI (Octet K2), SA sensor loaded with biotinylated CD47-hFc, antibody in solution, 1:1 fit.

T1 sequence (Q08722 19-139 limits assumed): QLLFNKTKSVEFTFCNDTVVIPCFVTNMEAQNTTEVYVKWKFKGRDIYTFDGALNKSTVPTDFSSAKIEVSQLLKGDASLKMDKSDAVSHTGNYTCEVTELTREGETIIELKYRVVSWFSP
T2 sequence (Q08722 19-141): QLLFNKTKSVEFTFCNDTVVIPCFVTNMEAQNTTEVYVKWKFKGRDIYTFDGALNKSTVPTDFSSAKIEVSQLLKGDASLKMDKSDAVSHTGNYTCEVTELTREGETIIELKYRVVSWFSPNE

B1: 7DC4 (antibody, human IgG1, kappa, V domains shown)
VH: QVQLKQSGAELVQPGASVKLSCKASGYTFTNYYMYWLRQRPGQGLEWIGEINPSNGGTDFNEKFKSKATLTVDKSSSTAFMQLSSLTSDDSAVYYCARGGFTMDYWGQGTTVTVSS
VL: DVVMTQTPLSLPVSLGDQASISCRSSQSLVHSNGNTYLHWYLQKPGQSPKLLIYKVSNRFSGVPDRFSGSGSGTDFTLKISRVEAEDLGVYFCSQSTHVPLTFGAGTKLELKR
notes: Full-length chimeric antibody (mouse variable regions, human constant regions); also called 7DC4抗体
The Kd is the free concentration of one partner at which half of the binding sites on the other are occupied at equilibrium, for simple one-to-one binding. Low values mean higher affinity, high ones lower affinity. As for B1, the Kd in assay [1] is 20.2 pM; in assay [2] it was 27.6 pM.

B2: 7DC2 (antibody, human IgG1, kappa, V domains shown)
VH: QVQLQQSGPELVKPGASVKMSCKASGYTFTNYFMHWVKQKPGQGLEWIGYINPYNDGTKYNEKFKGKATLTSDKSSSTAYMELSSLTSEDSAVYYCTKGGRYSMDYWGQGTTLTVSS
VL: DVVMTQTPLSLPVRLGDEVSISCRSSQTIVFTNGNTYLEWYLQKPGQSPKLLIYKVSNRFSGVPDRFSGSGSGTDFTLTISRVEAEDLGIYYCFQGSHVPYTFGGGTKLELKR
notes: Full-length chimeric antibody (mouse variable regions, human constant regions); also called 7DC2抗体
With B2, the Kd is 221 pM in assay [1] and 192 pM in assay [2].
